# B1: SELP815K: silk-elastin-like protein polymer, longer silk units, fifteen elastin units, lysine elastin unit; monomer repeated 6 times (SEQ ID NO. 21) (protein)
# chain: MDPVVLQRRDWENPGVTQLNRLAAHPPFASDPMGAGSGAGAGSGAGAGSGVGVPGVGVPGVGVPGVGVPGKGVPGVGVPGVGVPGVGVPGVGVPGVGVPGVGVPGVGVPGVGVPGVGVPGVGVPGVGVPGAGAGSGAGAGSGAGAGSGAGAGSGAGAGSGAGAGAGSGAGAGSGAGAGSGVGVPGVGVPGVGVPGVGVPGKGVPGVGVPGVGVPGVGVPGVGVPGVGVPGVGVPGVGVPGVGVPGVGVPGVGVPGVGVPGAGAGSGAGAGSGAGAGSGAGAGSGAGAGSGAGAGAGSGAGAGSGAGAGSGVGVPGVGVPGVGVPGVGVPGKGVPGVGVPGVGVPGVGVPGVGVPGVGVPGVGVPGVGVPGVGVPGVGVPGVGVPGVGVPGAGAGSGAGAGSGAGAGSGAGAGSGAGAGSGAGAGAGSGAGAGSGAGAGSGVGVPGVGVPGVGVPGVGVPGKGVPGVGVPGVGVPGVGVPGVGVPGVGVPGVGVPGVGVPGVGVPGVGVPGVGVPGVGVPGAGAGSGAGAGSGAGAGSGAGAGSGAGAGSGAGAGAGSGAGAGSGAGAGSGVGVPGVGVPGVGVPGVGVPGKGVPGVGVPGVGVPGVGVPGVGVPGVGVPGVGVPGVGVPGVGVPGVGVPGVGVPGVGVPGAGAGSGAGAGSGAGAGSGAGAGSGAGAGSGAGAGAGSGAGAGSGAGAGSGVGVPGVGVPGVGVPGVGVPGKGVPGVGVPGVGVPGVGVPGVGVPGVGVPGVGVPGVGVPGVGVPGVGVPGVGVPGVGVPGAGAGSGAGAGSGAGAGSGAGAGSGAGAGSGAGAMDPGRYQDLRSHHHHHH
# modifications: monomer repeated 6 times; Hybrid of Homo sapein and Bombyx mori
# Experiment: Dynamic mechanical analysis (DMA) of SELP hydrogels
# Assay type: physicochemical
# Settings: 12 wt % hydrogels
# Description: It was predicted that polymer structure would also play a large role in the mechanical properties of the hydrogels. Dynamic mechanical analysis (DMA) was used to examine hydrogels made from each of the SELP analogues, and as predicted, there was a strong dependence of the results on the silk and elastin content of the polymers, and the arrangement of the silk and elastin blocks. […] This is opposite the order observed in the swelling studies, which is to be expected assuming the crosslinking density decreases with increasing swelling and decreasing mechanical properties for analogous materials. The legend for the graph shown in FIG. 8 is as follows: triangles: SELP-47K, squares: SELP-815K, diamonds: SELP-415K. Highly controlled structure in SELPs allows fine-tuning of mechanical properties.
# To gain further insight into the hydrogel pore structure, network properties were examined as a function of polymer sequence by small angle neutron scattering (SANS) techniques (FIG. 9). SANS allows the examination of microstructures in the range 1-100 nm through the analysis of elastic neutron scattering. […] The calculated correlation length (Table 3) depicts a trend in the observation that are in the order SELP-415K>SELP-815K>SELP-47K. […]
molecule,measurement,value
B1,storage modulus,falls between those of SELP47K and 415K

# Source: patent US10253089B2, “Matrix metalloproteinase cleavable protein polymers for cancer gene therapy” (The University of Utah Research Foundation, priority 2012, dated 2019)
